Two molecules from patent publication US20020098189A1 (AstraZeneca / MedImmune, published 2002) can be followed below.

In assay [1] the target is T1, F protein of respiratory syncytial virus (RSV-Long strain), on infectious virus (respiratory syncytial virus (RSV-Long …, UniProt P12568 26-574)). Kind of assay: cell-based or functional assay.
Assay [2] addresses T2, C-terminal truncated RSV F protein, secreted from recombinant baculovirus-infected cells (respiratory syncytial virus (strain not …, UniProt P03420 26-526)).
T2 construct: also called F antigen of RSV
The assay can be described thus: SPR (BIAcore), F protein immobilized, whole antibody injected. A general note: Surface plasmon resonance follows binding to a sensor surface in real time, without labels.

For assay [3], the target named is T1, F protein of respiratory syncytial …. The assay can be described thus: cell-based or functional assay. The source holds these as a separate data set.

T2 sequence (P03420 26-526): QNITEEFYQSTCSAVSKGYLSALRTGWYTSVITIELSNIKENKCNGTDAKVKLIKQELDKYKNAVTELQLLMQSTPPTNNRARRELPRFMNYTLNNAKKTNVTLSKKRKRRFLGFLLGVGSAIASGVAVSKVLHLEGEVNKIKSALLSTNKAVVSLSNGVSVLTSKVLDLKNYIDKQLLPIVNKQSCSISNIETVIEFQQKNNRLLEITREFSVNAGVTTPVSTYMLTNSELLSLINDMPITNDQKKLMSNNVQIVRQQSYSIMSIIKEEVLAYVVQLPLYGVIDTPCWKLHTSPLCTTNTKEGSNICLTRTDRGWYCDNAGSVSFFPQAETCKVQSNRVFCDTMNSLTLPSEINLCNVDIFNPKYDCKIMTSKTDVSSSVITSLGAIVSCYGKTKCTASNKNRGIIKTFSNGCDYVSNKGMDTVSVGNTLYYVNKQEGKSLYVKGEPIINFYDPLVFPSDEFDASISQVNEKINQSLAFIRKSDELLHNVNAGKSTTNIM

B1: Clone 17 (whole monoclonal antibody) (antibody, V domains shown)
VH: QVTLRESGPALVKPTQTLTLTCTFSGFSLSTAGMSVGWIRQPPGKALEWLADIWWDDKKDYNPSLKSRLTISKDTSKNQVVLKVTNMDPADTATYYCARSMITNFYFDVWGAGTTVTVSS
VL: DIQMTQSPSTLSASVGDRVTITCSASSSVGYMHWYQQKPGKAPKLLIYDTFKLASGVPSRFSGSGSGTEFTLTISSLQPDDFATYYCFQGSFYPFTFGGGTKLEIK
For orientation: koff means the rate constant with which the complex falls apart. One may read the kon as a measure of how fast the partners come together. On to B1, for which the “EC50 (nM), RSV microneutralization” value in assay [1] is 2.7 nM. In assay [2], the koff worked out at 0.000249 s⁻¹ and the kon stood at 109000 M⁻¹ s⁻¹.

B2: MEDI-493 (clone 16), IgG1 (COR)/kappa (K102) humanized MAb (antibody, V domains shown)
VH: QVTLRESGPALVKPTQTLTLTCTFSGFSLSTSGMSVGWIRQPPGKALEWLADIWWDDKKDYNPSLKSRLTISKDTSKNQVVLKVTNMDPADTATYYCARSMITNWYFDVWGAGTTVTVSS
VL: DIQMTQSPSTLSASVGDRVTITCKCQLSVGYMHWYQQKPGKAPKLLIYDTSKLASGVPSRFSGSGSGTEFTLTISSLQPDDFATYYCFQGSGYPFTFGGGTKLEIK
As to B2, in assay [3], the “Mean IC50 µg/ml, RSV microneutralization” value turned out to be 0.453 µg/mL and the “Mean IC50 (Control) µg/ml, RSV microneutralization” value was 0.535 µg/mL. The “EC50 (nM), RSV microneutralization” value in assay [1] was found to be 6.12 nM. For the same molecule, in assay [2], the koff came to 0.000735 s⁻¹ and the kon worked out at 204000 M⁻¹ s⁻¹.
